Measurements reported in the nanobody polyreactivity screen of Harvey et al. (2022).

Assay: yeast display, Sf9 membrane polyspecificity reagent, FACS + sequencing; frameworks hold sequencing errors
Summary of the method: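 Galactose-induced (36–48 hours) yeast carrying a synthetic nanobody display library were exposed to 10% biotinylated, detergent-solubilized Sf9 membrane reagent at 4 °C for 1 hour. FACS followed streptavidin microbead enrichment, using low and high (top ~1%) gates for expression (anti-HA) and reagent binding (streptavidin). Colony PCR, MiSeq 2 × 250 sequencing and CDR-length filtering followed. Labels for polyreactivity reflect the gate of origin.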

| Sequence | polyreactivity (PSR sort gate) |
| --- | --- |
| QVQLVESVGGLVQAGGSLPLSCDASGSIFFYYAMGWSRHAPGKESELVAAIDFNGGTTYYADSVKGRFTISRDTAKITVYLQMNSLTPEDTAVYYCAAEWEGTYSTVPDEFNYWGQGTQVTVSS | high polyreactivity |
| QVQLVESGGGLVQAGGSLRLSCAASGFIFVYYAMGWYRQAPGKERELVAAISRASSTSYADSVKGRFTISRDNAKNTVYLQMISLKPEDTAVYYCAAVYYGGFSDYDYWGQGTQVTVSS | low polyreactivity |
| QVQLVESGGGLVQAGGSLRLSCAASGRTFRNYAMGWYRQAPGKERELVAAINSGGSTNYADSVKGRFTISRDNAKNTVYLQMNSLKPEDTAVYYCAKRRTYPGKGRFNYWGQGTQVTVSS | low polyreactivity |
| QVQLVESGGGLVQAGGSLRLSCAASGSIFSSYAMGWYRPAPGKERELVAAITRTGGRTYYADSVKGRFTISRDNAKNTVYLQMNSLKPEDTAVYYCAAKQVSRGVAAYDYWGQGTQVTVSS | high polyreactivity |
| QVQLVESGGGLVQAGGSLRLSCADSGSIFTYTMGWYRQAPGKERELVAVISRSGGRTYYADSVKGRFTISRDNAKNTVYLQMNSLKPEDTAVYYCATDGHNGYYGRYDYWGQGTQVTVSS | high polyreactivity |
| QVQLVESGGGLVQAGGSLRLSCAASGSTFVQNAMGWYRQAPGKERELVAAISRTGGSTYYADSVKGRITFSRDNAKNTVYLQLNTLKPEDTAVYFCAKRPPHYSWPKIIEFGSWGQGTQVTVSS | high polyreactivity |
| QVQLVESGGGLVQAGGSLRLSCAASGRIFYNNAMGWYRQAPGKERELVATISRGGSTNYADSVKGRFTISRDNAKNTVYLQMNSLKPEDTAVYYCAAVTTRSYGYEYWGQGTQVTVSS | low polyreactivity |
| QVQLVESGGGLVQAGGSLRLSCAASGRTFRYYVMGWYRPATGTERELVAGISGSGGNTYYADSVKGRFTISRDNAKNTVYLQMNSLKPEDTAVYYCNAYSPYAEYDYWGQGTQVTVSS | high polyreactivity |
| QVQLVDSGGGLVQAGGSLSLSCAASGRIFPYNAMGWYRQAPGKERELVAGISRTGGSTYYADSVKGRFTISRDNAKNTVYLQKNCLKTEDTAAYYCGARPGAHPDRLDYWGQGTQVTVSS | low polyreactivity |
| QVQLVESGGGLVQAGGSLPLSCAASGGTFRGNAMGWYRQAPGKERELVAAITGSGGSTYYADSVTGRFTISRDNAKNTVYLQMNSLKPEDSAVYYCAVDRASRRTYNQYGYWGQGTQVTVSS | high polyreactivity |
| QVQLVESGGGLVQAGGSLRLSCAASGRTFDFYAMGWYRQAPGKERELVASIDWDGGSTYYADSVKGRFTISRDNAKNTVYLQMNSLKPEDTAVYYCAKDGQKFTSSLYDYWGQGTQVTVSS | low polyreactivity |
| QVQLVESGGGLVQAGGRLRLSCAASGSTFPYNAMGCYRQAPGKERELVAAITSTGDSTYYADSVKGRFTISRDKAKNTVYLQMNSLKPEDTAVYYCAARSYASPGWRYEYWGQGTQVTVSS | low polyreactivity |
| QVQLVESGGGLVQAGGSLRLSCAASGSIFAYNTMGWYRQAPGKEREFVAAISWRGGSTYYADSVKGRFTISRDNAKNTVYLQMTSLKPEDTAVYYCNARYRNTFYTRRYDYWGQGTQVTVSS | high polyreactivity |
| QVQLVESAGGLVQAGGSLSLSCAASGRILDRNGMGWYRQAPGKERELVATITGIADSTYYADSVKGRFTISRDNAKNTVYLQMNSLKPEDTAVYYCAADKYVAEYDYWGQGTQVTVSS | low polyreactivity |
| QVQLVESGGGLVQAGGSLRLSCAASGSTFNTYAMGWYRQAPGKERELVAAITWRGGRTYYADSVKGRFTISRDNAKNTVYLQMISLKPEDTAVYYCNTLRPRLDGVYGYDYWGQGSQVTVSS | high polyreactivity |
| QVQLVESGGGLVQAGGSLRLSCAASGRIFSGYAMGWYRQATGKERELVAAITSVGSTNYADSVKGRFTISRDNAKNTVYLQMNSLKPEDTAVYYCAARSQIYYRYRSYGYWGQGTQVTVSS | high polyreactivity |
| QVQLVESGGGLVQAGGSLRLSCDASGNTFSRYAMGWYRQAHGKERELVAAITSSGGSTYYADSVKGRFTISRDNAKNTVYLQMNSLKPEDTAVYYCAATSYYTREHYYYWGQGTQVTVSS | high polyreactivity |
| QVQLVESGGGLVQAGGSLRLSCAASGRIFYDYTMGWYRQAPVKERELVATITSGGNTNYADSVKGRFTISRDNAKNTVYLQMNSLKPEDTEVYYCNADFGYWWDGSRYDYWGQGTQVTVSA | low polyreactivity |
| QVQLGESGGGLVQAGGSLRLSCAASGRIIPYYAMGWYRQAPGKERELVAAISLSGGSTYYADSVKGRFTISRDIAKNTVYLQMNSLKPEDTAVYYCNAVASTYGYYWYPGLGYDYWGQGTQVTVSS | low polyreactivity |
| QVQLVESGGGLVQAGGSLRLSCAASGRTFYYYAMGWYRQEPGKERELVAAISWSGGRTYYADSVKGRFTISRDNAKNTVYLQMNSLNPEDTAVYYCNAEPPRGYTVSSGGEMDYWGQGTQVTVSS | low polyreactivity |
| QVQLVESGGGLVQAGGSLRLSCAASGFIFEDYAMGWYRQAPGKERELVAAIRSNDDSTYYADSVKGRFTISRDNAKNTVYLQMNSLKPEDTAVYYCAAVRYVHFGYDYWGQGTQVTVSS | high polyreactivity |
| QVQLVESGGGLLQAGGSLRLSCAASGIIYRPYAMGWYRQAPGKERELVAAITGSGVSTYYADSVKGRFTISRDNAKNTVYLQMNSLKPEDTAVYYCAKRYNRGYHRYDSWGQGTQVTVSS | low polyreactivity |

| Sequence | polyreactivity (PSR sort gate) |
| --- | --- |
| QVQLVESGGGLVQAGGSLRLSCAASGSIFPFNAMGWYRQAPGKERELVAAIRWSDGRTYYADSVKGRFTISRDNAKNTVYLQMNSLKPEDTAVYYCAAKSYWGQGTQVTVSS | high polyreactivity |
| QVQLVESGGGLVQAGGSLRLSCAASGRIFQYYAMGWYRQAPGKERELVAAISRTGSTYYADSVKGRFTISRDNGKNTVYLQMNRLNPEDTAVYYCAADYWPQSNRWVYFRYGYWGQGTQVTVSS | high polyreactivity |
| QVQLVESGGGLVQAGGSLRLSCAASGSTFEGNAMGWYRQAPGKERELVAAINSVAITNYADSVKGRFTISRDNAKNTVYLQMNSLKPEDTAVYYCNAQTNRPWGWPIGYDYWGQGTQVTVSS | low polyreactivity |
| QVQLVESGGGLVQAGGSLRLSCAASGSTLGWYVMGWYRQAPGKERELVAAISKSGGRTYYADSVKGRFTISRDNAKNTVYLQMNSLKPEDTAVYYCAAYPPSDFYYEHDYWGQGTQVSVSS | high polyreactivity |
| QVQLVESGGGLVQAGGSLRLSCAASGFTLSSNPMGWNRQEPGKETELVAAISFNSTSTYYADSVKGRFTISRDNAKNTVYLQMKSLNPEDTAVYYCAADVPRVQSEPEYDYWGQGTQVTVSS | low polyreactivity |
| QVQLVESGGGLVQAGGSLRLSCAASGRIFGVYVMGWYRQAPGKEREFVAAITWSGGRTYYADSVKGRFTISRDNAKNTVYLQMNSLKPEDTAVYYCAARRRYEYDYWGQGTQVTVSS | high polyreactivity |
| QVQLVESGGGLVQAGGSLRLSCAASGRTFRANAMGWYRQAPGKERELVAAISKRGGNTYYADSVKGRFTISRDNAKNTVYLQMNSLKPEDTAVYYCAADFIGRDYDYWGQGTQVTVSS | high polyreactivity |
| QVQLVESGGGLVQAGGSLRLSCAASGSIFSIYAMGWYRQAPGKERELVAAINWIGTSTYYADSVKGRFTISRDNAKNTVYLQMNSLKPEDTAVYYCAAVSRRVSPYLSARDYCGQGTQVTVSS | high polyreactivity |
| QVQLVESGGGLVQAGGSLRLSCAASGSTFKGNAMGWYRQAPGKERELVAAITFSGGSTYYADSVKGRFTISRDNAKNTVYLQMNSLKPEDTAVYYCAKGEWVYWRPWYEYWGQGTQVTVSS | low polyreactivity |
| QVQLVESGGGLVQAGGSLRLSCAASGSIVIINAMGWYRQAPGKERELVASMTRNGGSTYYADSVKGRFTISRDNPKNTVEFQMNSLKPDDTAVYYCAATYYRFPSLIAYVRYDYWGQGTQVTVSS | high polyreactivity |
| QVQLVESGGGLVQAGGSLRISWAASGSTFGYYAMGWYRQAPGKDREWVAAISLGGGSTYYADSVKGRFTISRDNAKNTVYLQMNSLKPDDTAVYYCAARPYVRVKWKFNYWGQGTQVTVSS | low polyreactivity |
| QVQLVESGGGLVQAGGSLRLSCAASGSILTGNAMGWYRQAPGKERELVAGITVGGTSTYYADSVKGRFTISRDNAKNTVYLQMNSLKPEDTAVYYCAAGYRSYWGVYDFDYWGQGTQVTVSS | low polyreactivity |
| QVQLVESGGGLVQAGGSLRLSCAASGRTFAGYTMGWYRQAPGKERELVAAITKSGGSTYYADSVKGRFTISRDNEKNTVYLQMNSLKPEDTAVYYCAARYIPSRYGTGCGYYSWGQGTQVTVSS | high polyreactivity |
| QVQLVESGGGLVQAGGSLRLSCAASGSTFRYYAMGWYRQAPGKERELVAAINSGGSTYYADSVKGRFTISRDNAKNTVYLQMNSLKPEDTAVYYCAAYYFWYLYWGQGTQVTVSS | high polyreactivity |
| QVQLVESGGGLVQAGGSLRLSCAASGGIFSAYAMGWSRQAPGKERELVAVINGSGSNTYYADSVKGRFTISRDNAKNTVYLQMNSLKPEDTAVYYCAARVYVSRSKRLNYWGQGTQVTVSS | high polyreactivity |
| QVQLVESGGGLVQAGGSLRLSCAASGRIFQGYAMGWYRQAPRKERELVASITVRGGTTYYADSVKGRFTISRDHAKNTVYLQMISLKPEDTAVYYCNAAKLIHGYQSVYPGSNSRYYYWGQGTQVTVSS | low polyreactivity |
| QVQLVESGGGLVQAGGSLRLSCAASGSIFIYYAMGWYRQPPGKERELVAAISYSDGDTYYADSVKGRFTISRDNAKNTVYLQMNSLKPEDTAVYYCAAEVTLSYDVGWEDYWGQGTQVTVSS | high polyreactivity |
| QDQLVESGGGIVQAGGSLRLSCAASGFTFFANTMGWSRQAPGKERELVAVISSTVGYTYYADSVKGRFTISRDNAKNTVYLQMNSLKPEDTAVYYCAAKSIYDGFPYYLFDYWGQGSQVTVSS | high polyreactivity |
| QVQLVESGGGLVQAGGSLRLSCAASGSIFAVYAMGRYRQAPGKERELVASISRTGTTNYADSVKGRFTISRDNAKNTVYLQMNSLKPEDTAVYYCNADAYLYYKYHWGFTFYQYEYWGQGTQVTVSS | low polyreactivity |
| QVQLVESGGGLVQAGGSLRLSCAASGLTFSLYAMGWYRQAPGKERELVAAISSSGSTYYADSVKGRFTISRDNAKNTVYLQMNSLKPEDTAVYYCAADAPWWIDPIAGNYWGQGTQVTVSS | high polyreactivity |
| QVQLVESGGGLVQAGGSLRLSCAASGSTFRVYAMGWYRQAPGKERELVAAISRSGSITYYADSVKGRFTISRDNAKNTVYLQMNSLKPEDTAVYYCAARTYSRFTASTYYYWGQGTQVTVSS | high polyreactivity |
